Laboratory results published in patent publication US20100203055A1, “HAIR REGROWTH PROMOTER” (priority 2007, published 2010).
Entries after “also recorded” stand apart in the source; their conditions may differ.

Legend:
[1] = molecular target: T1, FGFR4 (Homo sapiens, UniProt P22455); test: Inhibition of FGF18-stimulated DNA synthesis (cell growth) in FGFR4/BaF3 cells by FGF18 partial peptides; assay type: cell-based, mouse; details: test sample 1 μg/ml, 30 ng/ml FGF18, FIG. 3A
T1 construct: expressed in transfected cells; host or cells: Ba/F3 (mouse IL-3-dependent proB cell); R4/Ba/F3 cells under G-418
T1 sequence (P22455 22-802, species assumed): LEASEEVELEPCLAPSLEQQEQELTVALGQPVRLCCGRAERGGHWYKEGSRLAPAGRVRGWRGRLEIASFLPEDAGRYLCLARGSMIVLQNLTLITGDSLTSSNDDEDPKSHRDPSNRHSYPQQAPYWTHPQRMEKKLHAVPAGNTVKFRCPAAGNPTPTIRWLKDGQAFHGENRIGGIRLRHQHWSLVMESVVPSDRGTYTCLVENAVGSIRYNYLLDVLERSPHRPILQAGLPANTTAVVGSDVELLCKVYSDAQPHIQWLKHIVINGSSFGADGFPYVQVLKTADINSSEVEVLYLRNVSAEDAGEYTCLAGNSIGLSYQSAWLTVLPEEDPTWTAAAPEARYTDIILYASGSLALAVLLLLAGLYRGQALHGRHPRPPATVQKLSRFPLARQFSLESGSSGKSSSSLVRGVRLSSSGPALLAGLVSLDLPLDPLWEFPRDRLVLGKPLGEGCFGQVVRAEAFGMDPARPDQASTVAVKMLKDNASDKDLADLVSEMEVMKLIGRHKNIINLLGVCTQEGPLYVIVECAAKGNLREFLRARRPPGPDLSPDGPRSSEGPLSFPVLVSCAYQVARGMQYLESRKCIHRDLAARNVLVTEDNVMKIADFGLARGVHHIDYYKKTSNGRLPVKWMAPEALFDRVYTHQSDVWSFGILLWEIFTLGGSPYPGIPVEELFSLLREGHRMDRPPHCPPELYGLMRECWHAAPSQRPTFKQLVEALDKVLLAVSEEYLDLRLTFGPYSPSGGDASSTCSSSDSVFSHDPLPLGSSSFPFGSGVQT
Description: (§1) According to teachings disclosed in literature, the FGF receptor genes FGFR1c, FGFR2c, FGFR3c and FGFR4 were respectively introduced by means of genetic engineering into Ba/F3 cell strain (obtained from RIKEN BRC) which is mouse IL-3-dependent proB cell to thereby prepare cells on whose surface FGFR was compulsively expressed (Ornitz, D M., Xu, J., Colvin, J S., McEwen, D G, MacArthur, C A., Coulier, E, Gao, G. and Goldfarb, M., 1996. Receptor specificity of the fibroblast growth factor family. J. Biol. Chem. 271(25):15292-15297; Yoneda, A., Asada, M., Oda, Y, Suzuki, M. and Imamura, T., 2000. Engineering of an FGF-proteoglycan fusion protein with heparin-independent, mitogenic activity. Nat. Biotec. 18(6):641-644).
(§2) Using these cells, the antagonist activity of test samples [whether or not test samples inhibit the DNA synthesis of FGF18-stimulated cell (this is taken as 100%)] was examined while stimulating each receptor with 30 ng/ml FGF18, in the co-presence of each partial peptide of FGF18 at 1 μg/ml (FIG. 3A) or at 100 ng/ml (FIG. 3B). Briefly, an activity that inhibits the cell growth stimulating effect of FGF18 was analyzed. Correspondence between individual columns and test samples is as described below.

[2] = system: FGFR3c; test: Inhibition of FGF18-stimulated DNA synthesis (cell growth) in FGFR3c/BaF3 cells by FGF18 partial peptides; assay type: cell-based, mouse
Description: as §1, §2

[3] = system: human dermal papilla cells (HFDP); test: Effect of FGF18 on gene expression of hair follicle growth promoting factors in dermal papilla cells; assay type: cell-based; details: dermal papilla cells cultured 24 hr with FGF18, then medium deprived of FGF18, versus continued FGF18-containing medium
Procedure: Cultured human dermal papilla cells (HFDP; from adult human scalp; Toyobo) were subcultured in HFDP growth medium (20% fetal bovine serum-containing basal medium for dermal papilla cell; Toyobo) and used in experiments within two passages. The cells were treated with trypsin and seeded in collagen-coated dishes (Sumilon; 6 cm in diameter) at 4×10^5 cells/dish. The cells were maintained at 37° C. in HFDP medium. On the next day, the medium was exchanged for HEK medium (EpiLife™, 0.06 mM CaCl2, 10 μg/ml insulin, 0.1 ng/ml hEGF, 0.5 μg/ml hydrocortisone, 0.4% BPE), and then FGF18 was added to the medium. After the cells were cultured for 24 hr, the medium was exchanged for FGF18 free medium in the test sample group (“-FGF18”). The control group (“Control”) was cultured continuously in the FGF18-containing medium. Subsequently, the cells were harvested and the mRNA was extracted and purified. The expression levels of mRNA from VEGF (known as a hair follicle growth promoting factor) and noggin (known as a hair growth inhibiting factor) contained in the resultant mRNA were analyzed.

[4] = system: hair follicle growth; test: Hair growth inhibiting effect by continuous administration of FGF18 in anagen phase-induced C3H/HeN mice; assay type: in vivo, mouse
Procedure: In order to examine the effect of FGF18 in vivo on hair follicle growth, FGF18 protein dissolved in phosphate buffered physiological saline (PBS) was administered to hair follicle anagen phase-induced mice. Briefly, dorsal hair of 50 day-old C3H/HeN male mice in telogen phase was depilated gently with fingers to thereby induce the start of hair follicle anagen phase. Then, FGF18 solution was injected into the dorsal skin subcutaneously from the vicinity of the tail (1 μg of FGF18 per mouse). The mice were maintained on a diet and water ad libitum. Starting from this day, FGF18 solution was injected subcutaneously into the dorsal skin every day at about the same time for consecutive 8 days. The control group received injection of PBS instead of FGF18. Nine days after the initial injection, the mice were euthanized under anesthesia. Full thickness skin samples were excised from the dorsal part and embedded in paraffin. The thus embedded skin samples were sliced into 4 μm thick sections with a microtome, stained with hematoxylin and observed under microscope.

[5] = system: hair follicles; details: single administration to mouse skin in telogen phase; Non-Patent Document 19 and Patent Document 2; cited from earlier work
[6] = test sample 100 ng/ml, 30 ng/ml FGF18, FIG. 3B
[7] = test sample 1 μg/ml, 30 ng/ml FGF18, FIG. 3A

Molecule	inhibition of the activity of FGF18 on FGFR4/BaF3 cells [1]	inhibition of the activity of FGF18 on FGFR3c/BaF3 cells [2, 7]	further results
d37: partial peptide of mouse FGF18, 37 amino acids deleted from N-terminus; SEQ ID NO: 20 (protein, truncation mutant polypeptide of mouse FGF18(d37)) MKHIQVLGRRISARGEDGDKYAQLLVETDTFGSQVRIKGKETEFYLCMNRKGKLVGKPDGTSKECVFIEKVLENNYTALMSAKYSGWYVGFTKKGRPRKGPKTRENQQDVHFMKRYPKGQAELQKPFKYTTVTKRSRRIRPTHPG		strongly inhibit	
d16: partial peptide of mouse FGF18, 16 amino acids deleted from N-terminus; SEQ ID NO: 17 (protein, truncation mutant polypeptide of mouse FGF18(d16)) MARDDVSRKQLRLYQLYSRTSGKHIQVLGRRISARGEDGDKYAQLLVETDTFGSQVRIKGKETEFYLCMNRKGKLVGKPDGTSKECVFIEKVLENNYTALMSAKYSGWYVGFTKKGRPRKGPKTRENQQDVHFMKRYPKGQAELQKPFKYTTVTKRSRRIRPTHPG		strongly inhibit	inhibition of the activity of FGF18 on FGFR3c/BaF3 cells [2, 6]: strongly inhibit
d22: partial peptide of mouse FGF18, 22 amino acids deleted from N-terminus; SEQ ID NO: 19 (protein, truncation mutant polypeptide of mouse FGF18(d22)) MRKQLRLYQLYSRTSGKHIQVLGRRISARGEDGDKYAQLLVETDTFGSQVRIKGKETEFYLCMNRKGKLVGKPDGTSKECVFIEKVLENNYTALMSAKYSGWYVGFTKKGRPRKGPKTRENQQDVHFMKRYPKGQAELQKPFKYTTVTKRSRRIRPTHPG	strongly inhibit	strongly inhibit	
FGF18: fibroblast growth factor 18 protein; secreted polypeptide of 181 amino acids; commercial FGF18 (PeproTech) used (protein) EENVDFRIHVENQTRARDDVSRKQLRLYQLYSRTSGKHIQVLGRRISARGEDGDKYAQLLVETDTFGSQVRIKGKETEFYLCMNRKGKLVGKPDGTSKECVFIEKVLENNYTALMSAKYSGWYVGFTKKGRPRKGPKTRENQQDVHFMKRYPKGQPELQKPFKYTTVTKRSRRIRPTHPA			expression level of VEGF mRNA [3]: 4.8 fold; expression level of noggin mRNA [3]: 3.5 fold; hair growth / hair follicle growth ([4]; 1 μg FGF18 per mouse subcutaneously once a day for 8 days after depilation, observed at day 9, versus PBS): hair growth is strongly inhibited; also recorded: hair growth was markedly inhibited; growth of hair follicles after stopping FGF18 administration ([4]; continuous administration under the same conditions, then stopped and mice raised thereafter): growth of hair follicles occurred; hair regrowth after single administration [5]: induces hair regrowth

Second part, led by results:

inhibition of the activity of FGF18 on FGFR4/BaF3 cells [1]	Molecule	inhibition of the activity of FGF18 on FGFR3c/BaF3 cells [2, 7]	further results
strongly inhibit	d95: partial peptide of mouse FGF18, 95 amino acids deleted from N-terminus; SEQ ID NO: 24 (protein, truncation mutant polypeptide of mouse FGF18(d95)) MGTSKECVFIEKVLENNYTALMSAKYSGWYVGFTKKGRPRKGPKTRENQQDVHFMKRYPKGQAELQKPFKYTTVTKRSRRIRPTHPG	strongly inhibit	inhibition of the activity of FGF18 on FGFR3c/BaF3 cells [2, 6]: strongly inhibit
strongly inhibit	d77: partial peptide of mouse FGF18, 77 amino acids deleted from N-terminus; SEQ ID NO: 23 (protein, truncation mutant polypeptide of mouse FGF18(d77)) MTEFYLCMNRKGKLVGKPDGTSKECVFIEKVLENNYTALMSAKYSGWYVGFTKKGRPRKGPKTRENQQDVHFMKRYPKGQAELQKPFKYTTVTKRSRRIRPTHPG	strongly inhibit	
strongly inhibit	d48: partial peptide of mouse FGF18, 48 amino acids deleted from N-terminus; SEQ ID NO: 21 (protein, truncation mutant polypeptide of mouse FGF18(d48)) MARGEDGDKYAQLLVETDTFGSQVRIKGKETEFYLCMNRKGKLVGKPDGTSKECVFIEKVLENNYTALMSAKYSGWYVGFTKKGRPRKGPKTRENQQDVHFMKRYPKGQAELQKPFKYTTVTKRSRRIRPTHPG	strongly inhibit	
